Literature values, collected in paper PMC3634455.

Legend:
tPA (Homo sapiens) = tPA (Homo sapiens) (UniProt P00750)
[1] = target: plasminogen (Homo sapiens) (UniProt P00747)
Sequence of UniProt P00747 (P00747 20-810): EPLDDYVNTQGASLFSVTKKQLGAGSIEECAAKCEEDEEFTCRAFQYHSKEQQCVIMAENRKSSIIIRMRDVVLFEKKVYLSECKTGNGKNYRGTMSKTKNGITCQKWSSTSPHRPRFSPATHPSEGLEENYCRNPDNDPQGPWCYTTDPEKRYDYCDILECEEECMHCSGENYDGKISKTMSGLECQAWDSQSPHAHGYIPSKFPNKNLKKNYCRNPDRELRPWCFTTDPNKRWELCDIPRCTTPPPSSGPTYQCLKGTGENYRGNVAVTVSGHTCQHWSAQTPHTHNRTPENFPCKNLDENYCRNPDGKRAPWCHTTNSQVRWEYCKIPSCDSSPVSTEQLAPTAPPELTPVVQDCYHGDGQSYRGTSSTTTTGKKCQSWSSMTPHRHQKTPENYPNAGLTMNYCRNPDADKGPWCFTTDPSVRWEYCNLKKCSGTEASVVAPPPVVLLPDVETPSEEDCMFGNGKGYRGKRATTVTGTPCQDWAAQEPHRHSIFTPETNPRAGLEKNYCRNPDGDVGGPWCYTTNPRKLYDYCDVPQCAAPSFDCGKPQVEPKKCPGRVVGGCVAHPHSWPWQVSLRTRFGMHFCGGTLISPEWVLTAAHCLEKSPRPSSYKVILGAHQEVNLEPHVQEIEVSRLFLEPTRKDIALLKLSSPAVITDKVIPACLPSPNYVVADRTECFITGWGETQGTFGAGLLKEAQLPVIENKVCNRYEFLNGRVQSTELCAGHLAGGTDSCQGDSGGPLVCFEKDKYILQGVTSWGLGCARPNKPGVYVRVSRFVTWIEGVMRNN

Sequence of UniProt P00750 (P00750 36-562): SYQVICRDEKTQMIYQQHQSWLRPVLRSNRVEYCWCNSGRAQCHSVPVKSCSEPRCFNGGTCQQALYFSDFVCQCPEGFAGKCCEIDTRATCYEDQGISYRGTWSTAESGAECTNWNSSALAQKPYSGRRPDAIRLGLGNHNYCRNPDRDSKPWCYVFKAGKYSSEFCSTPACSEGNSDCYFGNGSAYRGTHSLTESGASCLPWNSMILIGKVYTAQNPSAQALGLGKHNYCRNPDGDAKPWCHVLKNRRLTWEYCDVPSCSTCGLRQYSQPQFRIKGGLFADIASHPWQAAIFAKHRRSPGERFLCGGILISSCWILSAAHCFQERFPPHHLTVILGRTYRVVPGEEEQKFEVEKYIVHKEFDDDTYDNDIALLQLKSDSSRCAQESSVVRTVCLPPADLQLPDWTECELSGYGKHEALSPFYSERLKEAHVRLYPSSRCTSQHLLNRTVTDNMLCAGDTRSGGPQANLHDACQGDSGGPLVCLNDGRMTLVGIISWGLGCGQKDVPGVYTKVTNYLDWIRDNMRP

For “S100A10 (annexin A2 heterotetramer) (from UniProt P60903)”, the Kd (tPA (Homo sapiens)) is given as 680 nM and the Kd [1] is given as 110 nM.
